From paper PMC8797792

Biological target: GST-Fbw7 (residues 263 to 707)-Skp1 complex (UniProt Q969H0)
Assay: AlphaScreen or HTRF

“Myc T58 degron peptide, monophosphorylated (pT58)” gave an IC50 of 1320 nM.
